Data on 1 substance can be found in patent publication US20140348781A1.

In assay [1] the target is IL9 receptor (IL9R) (UniProt Q01114). Briefly: cell-based or functional assay.
Assay [2] concerns the target GMCSF receptor (GMCSFR) (UniProt Q00941). The assay is described as follows: cell-based or functional assay.
UniProt Q00941, sequence (Q00941 30-388, chain 1 of 2): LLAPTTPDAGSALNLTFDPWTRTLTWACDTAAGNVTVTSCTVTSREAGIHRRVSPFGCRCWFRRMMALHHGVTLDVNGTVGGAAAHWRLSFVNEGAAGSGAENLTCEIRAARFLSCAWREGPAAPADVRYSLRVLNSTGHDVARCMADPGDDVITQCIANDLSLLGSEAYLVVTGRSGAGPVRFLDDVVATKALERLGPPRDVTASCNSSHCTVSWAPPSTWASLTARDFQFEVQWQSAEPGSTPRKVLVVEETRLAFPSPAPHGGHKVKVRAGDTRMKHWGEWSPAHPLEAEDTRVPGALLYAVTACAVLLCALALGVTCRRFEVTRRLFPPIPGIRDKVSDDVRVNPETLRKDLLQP
UniProt Q00941, sequence (P26955 23-896, chain 2 of 2, further chain): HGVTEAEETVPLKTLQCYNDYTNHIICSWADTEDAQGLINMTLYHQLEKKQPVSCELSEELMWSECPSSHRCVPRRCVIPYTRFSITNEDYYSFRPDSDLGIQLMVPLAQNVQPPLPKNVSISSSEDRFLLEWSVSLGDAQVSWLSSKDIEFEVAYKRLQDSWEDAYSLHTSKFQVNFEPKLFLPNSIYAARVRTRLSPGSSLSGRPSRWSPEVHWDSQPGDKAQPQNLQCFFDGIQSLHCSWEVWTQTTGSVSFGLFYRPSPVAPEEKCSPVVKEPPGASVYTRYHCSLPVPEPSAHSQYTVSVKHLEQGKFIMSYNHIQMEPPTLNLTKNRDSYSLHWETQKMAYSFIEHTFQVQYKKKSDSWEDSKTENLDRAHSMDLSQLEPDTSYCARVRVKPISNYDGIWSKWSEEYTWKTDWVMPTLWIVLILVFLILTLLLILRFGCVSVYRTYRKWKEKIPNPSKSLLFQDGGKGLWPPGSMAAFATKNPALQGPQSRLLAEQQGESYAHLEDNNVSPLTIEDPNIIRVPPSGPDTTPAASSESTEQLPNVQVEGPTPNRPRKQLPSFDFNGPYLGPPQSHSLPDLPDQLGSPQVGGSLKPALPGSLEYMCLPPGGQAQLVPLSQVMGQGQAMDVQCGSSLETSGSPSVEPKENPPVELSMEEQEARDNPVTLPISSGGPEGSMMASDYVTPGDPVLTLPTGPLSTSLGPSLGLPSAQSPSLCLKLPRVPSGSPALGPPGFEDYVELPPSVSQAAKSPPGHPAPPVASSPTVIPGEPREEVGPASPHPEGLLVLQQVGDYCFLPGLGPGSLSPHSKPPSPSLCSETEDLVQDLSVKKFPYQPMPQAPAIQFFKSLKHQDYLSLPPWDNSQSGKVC

UniProt Q01114, sequence (Q01114 38-468 limits assumed, chain 1 of 2): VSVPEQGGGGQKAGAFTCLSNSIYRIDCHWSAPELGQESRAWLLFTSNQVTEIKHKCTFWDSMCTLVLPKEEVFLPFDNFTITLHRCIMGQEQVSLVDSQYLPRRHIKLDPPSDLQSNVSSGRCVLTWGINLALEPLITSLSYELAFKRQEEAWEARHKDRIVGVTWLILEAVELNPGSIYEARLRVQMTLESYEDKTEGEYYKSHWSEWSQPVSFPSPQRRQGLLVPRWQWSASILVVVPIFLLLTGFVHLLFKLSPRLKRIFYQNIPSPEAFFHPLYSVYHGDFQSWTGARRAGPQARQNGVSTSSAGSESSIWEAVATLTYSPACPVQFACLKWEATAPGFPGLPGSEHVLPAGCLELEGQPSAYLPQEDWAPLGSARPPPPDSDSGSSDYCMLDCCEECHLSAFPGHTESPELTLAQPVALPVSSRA
UniProt Q01114, sequence (P34902 23-369 limits assumed, chain 2 of 2, further chain): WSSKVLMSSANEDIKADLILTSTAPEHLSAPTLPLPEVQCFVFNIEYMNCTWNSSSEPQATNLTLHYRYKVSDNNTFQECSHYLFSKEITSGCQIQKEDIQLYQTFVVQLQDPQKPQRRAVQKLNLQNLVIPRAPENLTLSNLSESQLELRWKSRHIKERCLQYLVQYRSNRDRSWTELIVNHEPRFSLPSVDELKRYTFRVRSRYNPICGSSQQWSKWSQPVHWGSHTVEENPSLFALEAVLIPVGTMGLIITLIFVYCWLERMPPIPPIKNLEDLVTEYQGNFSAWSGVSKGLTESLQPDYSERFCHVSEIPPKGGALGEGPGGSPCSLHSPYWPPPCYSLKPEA

“mouse GIFT9 (fusion of mouse GMCSF and mouse IL9) (ligand)”: the proliferative rate of bone marrow derived mast cells (MTT assay, 5 days) in assay [1] and in assay [2] was 100% in each case.
